The source of these data is a protein production outcome set (Wang et al. 2014).

This data set in a line: label from the status in PepcDB records.

Turning to “MSAATPPFRDPQLPFAKRVDDLMSRLTLDEKTAFLHQFAPAVERLGIAPFRTGQEALHGVAWMGPATVFPQAVGLGATWNEELVRRVGEAVSKEARAMRARDDRVGLNVWSPTVNLLRHPLWGRNEEGYSEDPRLTSAVATAYTRGLRGDHPAYWRTAPVLKHWLAHNNETDRDTSSSSVRPRVLHEYDLRAFRDTVEAGAVAGVMPAYNLVNGRPNHLSPHLGRHLRTWTQEDLLVCSDAGAPSNLVDSEHYFDTHEEATAAALRAGVDSFTDHGTDSSKIVARVRGALEAGLLTEADVDAAVRRQLSVRFRLGEFDPENDPYSGAADTGADFDTPEHRALARDAAEQAVVLLKNDGVLPLAPETRVAVVGLLADECKLDWYSGTLIHRSTPLEGLYERFGADRVSFAEGVDRVRLRTADGRFLHVLPADDASAEAPGTEGALDPALLAGRTDLPPLTTDAVGTELALIDWGEGVLTLRASDGRYLSVAEDGFVRASADQPGGWVVQETFRLEPHDDGHLLRHTGTGRPVQVAADGVKVAAPDAAAGAAAGGAGSADAEVFELVVVERGEDAVTRVAAGADVVVVVAGNDPHINGRETEDRTTLRLPAQQERLLRAARAANPATVLALVSAYPYAVGVETLPAVLWTAHGGQAAGTALARILAGDVSPAGRLPQTWYSDDADLPGLLDYDVIGGRQTYLYFEGTPLFPFGHGLSYASFGYGDLTAQVRDGAVAVSFTVTNTGEVSADEVAQLYVRAEAPSVPRPRRELLAHRRLTLAPGASDRVSFEVPLSALAFWDVAHDRWRLEPGPYALLVGASSEDVRLTTTVTIDGEPAVPRPVGARGVQAVDFDEQSGTEIVDRTKAAGDAVAAVSGRTGELLYRDCDFGAGAAGVTVSVAGAGSVEVALDGGPAVAVLSPDAPTAGPYDYVELASAFTAEGVHDLRVTLRGALRLAHVGFSG”, the protein production entry is given as “failed”.

“MSADIVFDRGSPSDIDEIKTFTSNTWKVGYYTDLYSKLADTGTMDDYVDKVIERWVNDGSVYVLRVSGRPVATIHMEKLPDGSVMLGGLRVHPEYRGSRLGMSIMQETIQFLRGKTERLRSAVYSWNEPSLRLVHRLGFHQVEEYPIYTFQGGSTAVPALKPVNERYAGRWRCFFIDWKYMCSDDPDIIHEEYSNNLIVDGSTFVYFDIYEGGIDLFVNDSDDASSFIEKYRSMNGRITFYVRKALANGLPYVPASSLTVWEYRY”: the protein production result is “not failed”.

With “MSADSNSTDADPTAHWSFETKQIHAGQHPDPTTNARALPIYATTSYTFDDTAHAAALFGLEIPGNIYTRIGNPTTDVVEQRIAALEGGVAALFLSSGQAAETFAILNLAGAGDHIVSSPRLYGGTYNLFHYSLAKLGIEVSFVDDPDDLDTWQAAVRPNTKAFFAETISNPQIDLLDTPAVSEVAHRNGVPLIVDNTIATPYLIQPLAQGADIVVHSATKYLGGHGAAIAGVIVDGGNFDWTQGRFPGFTTPDPSYHGVVFAELGPPAFALKARVQLLRDYGSAASPFNAFLVAQGLETLSLRIERHVANAQRVAEFLAARDDVLSVNYAGLPSSPWHERAKRLAPKGTGAVLSFELAGGIEAGKAFVNALKLHSHVANIGDVRSLVIHPASTTHAQLSPAEQLATGVSPGLVRLAVGIEGIDDILADLELGFAAARRFSADPQSVAAF”, the protein production entry is given as “not failed”.

Regarding “MSAEKSISSDHVPLSDPALKTINRNAGRNLNHIAFISTLGGLLFGVDTGVINGAIGYMATPAELNLSPNNEGLVTSGITLGAAFGAVFAGHLSDRIGRKRLLKYLALLFFVCTLACSLAPNALFMIISRVLLGLAVGGASVIVPTYLSEISTPEIRGRLVTQNELMIVTGQLLAFIVNAILGNWFGHISNIWRYMIGFGMIPAVALFFGMMVVPESPRWLVMVNQLDNAFDSLRKIRSHPETCNEEITQIQDTLNQESEIKQATFKDLSTPWIRRLVFIGIGLGVMQQFIGINIMMYYGTTILTNSGFAHNAALIANIGNGLVSVIATFIGMSIMNRVNRRSMLIAGIIGTTTSLILIVGVSAFLSQSPLLPILVVLCTMMFLGFFQGFISPLVWLLLSEIFPQNLRGLGMGVSTFFLWFANFLVGYFFPILLSAVGMTWTFLIFVFFNILSFIFAYKYAPETRGKSLELIQMEFKYGDTTGINPEDK”, the protein production result is recorded as “failed”.

For “MSAEKSSADTAKKTLTIYSTMSTDSERDTFRKLAAAFEKEHSDIHVSLHFPGNDYENMMRVRMAANDLPDLFDTHGWGKIRYGEYTADLRDMKWTQDLDPNLNSILKNKSGKVYAYPINQAKDGLAYNRNILDRYGIAPPETMDDFIKALRTIKEKSKGSIVPFWFAGYDKSSFAQYYDQFATPLLITDPAHNEKKQLINGTFQWSKFTYLSEILKQMQKEKLINIDAVTAKKSQLIELMAQNKIAFTMQGGTLGQDVAQINPNVKVGIIPTPAIHPGDDPIWIGGERYTLAAWKDSPQLKEAKDFIAFMARPANAKQMAEATSLPSGLTNVKADIFYANDYEYYQDVKVEPYFDRLYLPNGMWDVLGTVGQELAADILAPQDISQKLGREYKRLREQSETQGAENNELEHHHHHH”, the protein production entry was “not failed”.
